Source: PMC3565344, “Gamma-Aminobutyric Acid Production Using Immobilized Glutamate Decarboxylase Followed by Downstream Processing with Cation Exchange Chromatography” (International Journal of Molecular Sciences, 2013)
Values joined by “and” are separate entries in the source; they are usually repeats but may differ in a detail not shown here. Equal entries are not always repeated.

Molecular target: the molecule itself
Assay: SEC; size exclusion HPLC on TSKgel G3000SW; 20 uL purified GAD injected; isocratic elution at 1 mL/min for 30 min; 0.1 M sodium sulfate in 0.1 M phosphate buffer, pH 6.8; mix of monomer, dimer and tetramer

B1: Escherichia coli glutamate decarboxylase fused to six histidine at its C-terminus (enzyme, E. coli, UniProt P69910 1-466, looked up)
chain: MDKKQVTDLRSELLDSRFGAKSISTIAESKRFPLHEMRDDVAFQIINDELYLDGNARQNLATFCQTWDDENVHKLMDLSINKNWIDKEEYPQSAAIDLRCVNMVADLWHAPAPKNGQAVGTNTIGSSEACMLGGMAMKWRWRKRMEAAGKPTDKPNLVCGPVQICWHKFARYWDVELREIPMRPGQLFMDPKRMIEACDENTIGVVPTFGVTYTGNYEFPQPLHDALDKFQADTGIDIDMHIDAASGGFLAPFVAPDIVWDFRLPRVKSISASGHKFGLAPLGCGWVIWRDEEALPQELVFNVDYLGGQIGTFAINFSRPAGQVIAQYYEFLRLGREGYTKVQNASYQVAAYLADEIAKLGPYEFICTGRPDEGIPAVCFKLKDGEDPGYTLYDLSERLRLRGWQVPAFTLGGEATDIVVMRIMCRRGFEMDFAELLLEDYKASLKYLSDHPKLQGIAQQNSFKHT
notes: glutamate decarboxylase (GAD, EC 4.1.1.15) of E. coli, gene amplified from genomic DNA (GenBank M84025); The reverse primer puts an XhoI site (CTCGAG, would encode Leu-Glu) between the last GAD codon and the six histidines; this is my reading of the primer; also called GAD; EGAD; source: E. coli BL21 (DE3), purified (HisTrap HP, buffer exchange on Sephadex G-25); not shown: His6, C-terminal, kept
- stoichiometry N: 2 and 4
